In data set [1] the target is glutamate racemase (RacE) (Bacillus subtilis, UniProt P94556). The class given is biochemical.
A further data set has as its system N[C@H](CCC(=O)O)C(=O)O. The data set can be described thus: purified protein. The conditions noted are these: active site. The class given is biochemical, Bacillus subtilis.
Substrate in the data set “purified protein”: N[C@@H](CCC(=O)O)C(=O)O
The data set can be described thus: purified protein. The following applies: active site, between Cys74 and Cys185.

The term Ki denotes the dissociation constant of the complex between target and ligand, obtained from inhibition or displacement. A low value points to a stronger hold on the target. What is called Km is the concentration of substrate that gives half-maximal velocity.

`O=C(O)c1cccc(C(=O)O)n1` [DPA, 2,6-pyridinedicarboxylic acid] gave a Ki in data set [1] of 1.97 ± 1.16 mM.

For the molecule “glutamate racemase (RacE) T76A (Bacillus subtilis subsp. subtilis str. 168; T76A)”, in the data set with N[C@H](CCC(=O)O)C(=O)O, the Km is on record as 8.6 ± 1.4 mM.

B1: glutamate racemase (RacE) (Bacillus subtilis subsp. subtilis str. 168) (protein)
chain: MLEQPIGVIDSGVGGLTVAKEIMRQLPKENIIYVGDTKRCPYGPRPEEEVLQYTWELTNYLLENHHIKMLVIACNTATAIALDDIQRSVGIPVVGVIQPGARAAIKVTDNQHIGVIGTENTIKSNAYEEALLALNPDLKVENLACPLLVPFVESGKFLDKTADEIVKTSLYPLKDTSIDSLILGCTHYPILKEAIQRYMGEHVNIISSGDETAREVSTILSYKGLLNQSPIAPDHQFLTTGARDQFAKIADDWFGHEVGHVECISLQEPIKR
For B1, the Km in the data set “purified protein” worked out at 14 ± 6 mM.
